Patent publication US5733790, “CRF binding protein antibodies and assays using same” (The Salk Institute for Biological Studies, dated 1998)

Biological target: T1, rat/human corticotropin releasing factor (human and rat (same 41-residue sequence), C-terminal amide (NH2))
T1 peptide: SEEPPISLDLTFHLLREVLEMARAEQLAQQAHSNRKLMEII
Assay: binding assay, method not described

B1: purified human CRF-BP (native 37 kD protein purified from human plasma) (other)
chain: YLELREAADYDPFLLFSANLKRELAGEQPYRRALRCLDMLSLQGQFTFTADRPQLHCAAFFISEPEEFITIHYDQVSIDCQGGDFLKVFDGWILKGEKFPSSQDHPLPSAERYIDFCESGLSRRSIRSSQNVAMIFFRVHEPGNGFTLTIKTDPNLFPCNVISQTPNGKFTLVVPHQHRNCSFSIIYPVVIKISDLTLGHVNGLQLKKSSAGCEGIGDFVELLGGTGLDPSKMTPLADLCYPFHGPAQMKVGCDNTVVRMVSSGKHVNRVTFEYRQLEPYELENPNGNSIGEFCLSGL
  Kd: 0.1 nM
